Reference: article PMC11780864, “RNA G-quadruplex structure-based PROTACs for targeted DHX36 protein degradation and gene activity modulation in mammalian cells”

T1: RHAU53 peptide (DHX36 fragment) (UniProt Q9H2U1)
T1 chain: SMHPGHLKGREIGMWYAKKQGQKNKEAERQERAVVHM

B1: FAM_rG4_P_C6 (structured_RNA)
RNA: GGGUUGCGGAGGGUGGGCCU
modifications: 5'-hexynyl clicked to pomalidomide-C6
B2: rG4_A (unlabelled) (structured_RNA)
RNA: GGGUUGCGGAGGGUGGGCCU
modifications: 5'-hexynyl clicked to AHPC-PEG2
B3: FAM_rG4 (5' Hexynyl_hTERC rG4 WT_3' FAM) (structured_RNA)
RNA: GGGUUGCGGAGGGUGGGCCU
modifications: 5'-hexynyl
B4: FAM_rG4_P_PEG2 (structured_RNA)
RNA: GGGUUGCGGAGGGUGGGCCU
modifications: 5'-hexynyl clicked to pomalidomide-PEG2
B5: FAM_rG4 mut_A (ssRNA)
RNA: GAGUUGCGGAGAGUGAGCCU
modifications: 5'-hexynyl clicked to AHPC-PEG2
B6: FAM_rG4_A_PEG2 (FAM_rG4_A) (structured_RNA)
RNA: GGGUUGCGGAGGGUGGGCCU
modifications: 5'-hexynyl clicked to AHPC-PEG2 (VHL ligand)
B7: FAM_dG4_A (T95-2T) (structured_DNA)
DNA: TTGGGTGGGTGGGTGGGT
modifications: 5'-hexynyl clicked to AHPC-PEG2
B8: FAM_dG4 mut_A (ssDNA)
DNA: TTGTGTGTGTGTGTGTGT
modifications: 5'-hexynyl clicked to AHPC-PEG2
B9: FAM_rG4_P_PEG1-C2 (structured_RNA)
RNA: GGGUUGCGGAGGGUGGGCCU
modifications: 5'-hexynyl clicked to pomalidomide-PEG1-C2
B10: FAM_rG4_A_C6 (structured_RNA)
RNA: GGGUUGCGGAGGGUGGGCCU
modifications: 5'-hexynyl clicked to AHPC-C6

What was measured:
[1] = biological target: T1, RHAU53 peptide (DHX36 fragment); assay: EMSA; Kd1, first shift; EMSA and MST: 25 mM Tris-HCl pH 7.5, 150 mM KCl, 1 mM MgCl2, 37 C 30 min; 30 nM (EMSA) or 40 nM (MST) FAM-oligo; EMSA gel 10% native PAGE, 0.5x TBE, 4 C; conditions: label: 3'-FAM; G4
[2] = biological target: T1, RHAU53 peptide (DHX36 fragment); assay: competition; EMSA vs 30 nM FAM_dG4_A, 100 nM RHAU53; EMSA and MST: 25 mM Tris-HCl pH 7.5, 150 mM KCl, 1 mM MgCl2, 37 C 30 min; 30 nM (EMSA) or 40 nM (MST) FAM-oligo; EMSA gel 10% native PAGE, 0.5x TBE, 4 C; conditions: G4
[3] = biological target: T1, RHAU53 peptide (DHX36 fragment); assay: EMSA; EMSA and MST: 25 mM Tris-HCl pH 7.5, 150 mM KCl, 1 mM MgCl2, 37 C 30 min; 30 nM (EMSA) or 40 nM (MST) FAM-oligo; EMSA gel 10% native PAGE, 0.5x TBE, 4 C; conditions: label: 3'-FAM; for binding result: non-G4

Binder | Kd [1] | other results
B1 | 160 ± 26.2 nM | –
B2 | – | IC50 [2]: 176.8 ± 1 nM
B3 | – | Kd ([3]; G4): 66.7 ± 16.5 nM
B4 | 132 ± 25.5 nM | –
B5 | – | binding result [3]: no binding
B6 | 67.5 ± 13.2 nM | –
B7 | 317 ± 45.1 nM | –
B8 | – | binding result [3]: no binding
B9 | 174 ± 35.3 nM | –
B10 | 70.3 ± 9.3 nM | –
